Key:
E. coli BirA = target: T1, E. coli BirA (Escherichia coli, UniProt P06709); test: HPLC-MS of biotinylated BCCP core; format: biochemical; conditions: apo-BCCP core (BC1) as acceptor protein, 10 µM biotin, 0.3 mM ATP, 5 mM MgCl2, pH 8.0, 37 °C
T1 construct: Met1-Lys321, N-terminal His6 tag (pET28a), E. coli BL21(DE3)

[1] = target: T2, ACC complex (biotinylated BC1 with CTβ-CTα) (Chloroflexus aurantiacus, UniProt A9WBQ8+A9WBQ9); test: HPLC and MS detection of malonyl-CoA; format: biochemical; conditions: 10 mM acetyl-CoA, 40 mM bicarbonate, 1 mM ATP, 5 mM MgCl2, pH 9.0, RT
T2 construct: gene accD; His6-tagged, E. coli BL21(DE3); with Biotin carboxylase (acetyl-CoA carboxylase, biotin carboxylase; fused BC-BCCP)
T2 sequence (A9WBQ8 entry or part of it, one chain of several): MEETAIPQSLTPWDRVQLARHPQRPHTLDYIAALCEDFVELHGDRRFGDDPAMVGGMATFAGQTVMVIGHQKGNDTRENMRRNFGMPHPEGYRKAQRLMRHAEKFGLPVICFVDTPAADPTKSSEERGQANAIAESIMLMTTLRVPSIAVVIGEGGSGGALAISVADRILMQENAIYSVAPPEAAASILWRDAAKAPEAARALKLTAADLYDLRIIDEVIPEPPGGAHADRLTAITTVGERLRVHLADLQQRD
T2 sequence (A9WBQ9 24-305, one chain of several): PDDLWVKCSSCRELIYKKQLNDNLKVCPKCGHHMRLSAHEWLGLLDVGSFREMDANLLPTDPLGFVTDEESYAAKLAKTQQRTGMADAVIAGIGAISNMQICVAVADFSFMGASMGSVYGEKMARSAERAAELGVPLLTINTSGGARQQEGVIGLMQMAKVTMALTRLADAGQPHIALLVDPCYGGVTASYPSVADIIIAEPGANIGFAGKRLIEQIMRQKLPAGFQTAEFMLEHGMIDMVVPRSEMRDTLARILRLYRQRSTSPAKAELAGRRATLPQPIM

[2] = target: the molecule itself; test: AUC + SEC; sedimentation velocity, 42,000 rpm, 20°C, initial A280 ~0.7, Sedfit; gel filtration on a Superdex 200 column
purified protein [3] = substrate: O=C(O)O; test: purified protein; conditions: apparent Km, 40 mM biotin, 2 mM ATP, 8 mM MgCl2, 100 mM Hepes pH 8.0, 25 °C
purified protein [4] = substrate: O=C(O)CCCC[C@@H]1SC[C@@H]2NC(=O)N[C@@H]21; test: purified protein; conditions: apparent Km, free biotin as carboxyl acceptor, 40 mM bicarbonate, 2 mM ATP, 8 mM MgCl2, 100 mM Hepes pH 8.0, 25 °C
[5] = target: the molecule itself; test: crystal structure; hanging-drop vapor diffusion at 16°C; BC1 at 6.5 mg/mL, BC2 at 10 mg/mL in 20 mM Tris-HCl pH 8.0, 150 mM NaCl, 2 mM MgCl2; molecular replacement

T1 sequence (P06709 whole entry): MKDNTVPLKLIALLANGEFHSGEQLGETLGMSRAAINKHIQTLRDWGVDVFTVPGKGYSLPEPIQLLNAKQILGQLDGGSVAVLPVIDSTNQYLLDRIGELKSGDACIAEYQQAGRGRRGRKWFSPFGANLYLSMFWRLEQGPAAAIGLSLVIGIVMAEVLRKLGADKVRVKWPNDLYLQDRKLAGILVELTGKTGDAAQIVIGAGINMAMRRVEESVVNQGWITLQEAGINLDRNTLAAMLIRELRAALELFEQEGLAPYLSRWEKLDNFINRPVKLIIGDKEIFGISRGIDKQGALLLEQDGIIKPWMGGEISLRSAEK

O=C(O)CCCC[C@@H]1SC[C@@H]2NC(=O)N[C@@H]21 [biotin]
HPLC-MS of biotinylated BCCP core (E. coli BirA): BC1-BCCP domain can be biotinylated by both E. coli and C. aurantiacus BirA

CC(=O)SCCNC(=O)CCNC(=O)[C@H](O)C(C)(C)COP(=O)(O)OP(=O)(O)OC[C@H]1O[C@@H](n2cnc3c(N)ncnc32)[C@H](O)[C@@H]1OP(=O)(O)O [acetyl-CoA]
HPLC and MS detection of malonyl-CoA [1]: the reconstituted ACC complex is enzymatically active

B1: His6-BC1ΔBCCP (Met1-Glu452) (domain or fragment, Chloroflexus aurantiacus J-10-fl, UniProt A9W9X0 1-452, looked up)
chain: MFRTILVANRGEIALRVMRACRELGLRCVAVYSEADRDAPHVAYADDAFLIGPPSPAESYLNIDAIIRAAKATGAEAIHPGYGFLAENASFVRAVTAAGLIFIGPPAEAMERMGGKTAARREATAAGVPVVPGVLEPVTDAAEVRRLGKEFGYPIAIKAVGGGGGRGLRVVRSPEEVDEAFAAARREAEVAFKNGELYVEKYLDDPRHIEIQVLADRYGNAVALGERDCSVQRRHQKLIEECPSPALTPELRAEMGAAAVRLAKAVGYVSAGTLEFLFQDGRYYFLEMNTRIQVEHTVTEMVYGIDLVAAQIRIAQGEKLWFKQEDVVPRGHAIECRINAEDPLHNFRPALGTIGEYHEPVGFGVRVDSGVRAYYTVPSHYDSLLAKLITWGSDRQEAIARMRRALAEYRIEGVTTIIPFHQAALEHPVFTAGAATVNFIPRHPELFSRAAE
notes: BC domain of biotin carboxylase isoform BC1, Chloroflexus aurantiacus J-10-fl; also called BCCP-truncated BC1 mutant; not shown: His6, N-terminal, kept
stoichiometry N [2]: 2
Km (purified protein [3]): 7.4 ± 0.3 mM
kcat (purified protein [3]): 14.3 s⁻¹
kcat/Km (purified protein [3]): 1930 M⁻¹ s⁻¹
Km (purified protein [4]): 17.1 ± 1.2 mM
kcat (purified protein [4]): 15.6 s⁻¹
kcat/Km (purified protein [4]): 920 M⁻¹ s⁻¹

B2: BC1 (Chloroflexus aurantiacus J-10-fl) (protein)
chain: MFRTILVANRGEIALRVMRACRELGLRCVAVYSEADRDAPHVAYADDAFLIGPPSPAESYLNIDAIIRAAKATGAEAIHPGYGFLAENASFVRAVTAAGLIFIGPPAEAMERMGGKTAARREATAAGVPVVPGVLEPVTDAAEVRRLGKEFGYPIAIKAVGGGGGRGLRVVRSPEEVDEAFAAARREAEVAFKNGELYVEKYLDDPRHIEIQVLADRYGNAVALGERDCSVQRRHQKLIEECPSPALTPELRAEMGAAAVRLAKAVGYVSAGTLEFLFQDGRYYFLEMNTRIQVEHTVTEMVYGIDLVAAQIRIAQGEKLWFKQEDVVPRGHAIECRINAEDPLHNFRPALGTIGEYHEPVGFGVRVDSGVRAYYTVPSHYDSLLAKLITWGSDRQEAIARMRRALAEYRIEGVTTIIPFHQAALEHPVFTAGAATVNFIPRHPELFSRAAELTPPTAASAGAEPAPEPRRFTIEVNGRRFGVAVFGDGMNATPVASPSRSAPARRAAPKKTTLAAPVDAVISPIQGRVVAVRVAHGQQVEAGQVLFIVEAMKMENEITAPHSGTIAEVRVEVGTTVEAGAMLATYQNTANNTNGK
Km (purified protein [3]): 4.5 ± 0.1 mM
kcat (purified protein [3]): 20.7 s⁻¹
kcat/Km (purified protein [3]): 4560 M⁻¹ s⁻¹
Km (purified protein [4]): 11.4 ± 0.2 mM
kcat (purified protein [4]): 19.1 s⁻¹
kcat/Km (purified protein [4]): 1670 M⁻¹ s⁻¹

B3: Chloroflexus aurantiacus BC1 (His6-tagged, Met1-Lys596), not biotinylated in vitro (enzyme, Chloroflexus aurantiacus J-10-fl, UniProt A9W9X0 1-596, looked up)
chain: MFRTILVANRGEIALRVMRACRELGLRCVAVYSEADRDAPHVAYADDAFLIGPPSPAESYLNIDAIIRAAKATGAEAIHPGYGFLAENASFVRAVTAAGLIFIGPPAEAMERMGGKTAARREATAAGVPVVPGVLEPVTDAAEVRRLGKEFGYPIAIKAVGGGGGRGLRVVRSPEEVDEAFAAARREAEVAFKNGELYVEKYLDDPRHIEIQVLADRYGNAVALGERDCSVQRRHQKLIEECPSPALTPELRAEMGAAAVRLAKAVGYVSAGTLEFLFQDGRYYFLEMNTRIQVEHTVTEMVYGIDLVAAQIRIAQGEKLWFKQEDVVPRGHAIECRINAEDPLHNFRPALGTIGEYHEPVGFGVRVDSGVRAYYTVPSHYDSLLAKLITWGSDRQEAIARMRRALAEYRIEGVTTIIPFHQAALEHPVFTAGAATVNFIPRHPELFSRAAELTPPTAASAGAEPAPEPRRFTIEVNGRRFGVAVFGDGMNATPVASPSRSAPARRAAPKKTTLAAPVDAVISPIQGRVVAVRVAHGQQVEAGQVLFIVEAMKMENEITAPHSGTIAEVRVEVGTTVEAGAMLATYQNTANNTNGK
notes: biotin carboxylase isoform BC1 with fused BC (Met1-Glu452) and BCCP (Ala459-Lys596) domains, Chloroflexus aurantiacus J-10-fl, 596 residues; the pull-down control was; also called His6-BC1; unbiotinylated BC1; source: for the pull-down passed over streptavidin agarose to remove the biotinylated fraction; not shown: His6, N-terminal, kept
stoichiometry N [5]: 4

B4: BC1ΔBCCP^β-hairpin (BC1 lacking Thr473-Gly486) (enzyme, Chloroflexus aurantiacus J-10-fl, UniProt A9W9X0 1-596, looked up)
chain: MFRTILVANRGEIALRVMRACRELGLRCVAVYSEADRDAPHVAYADDAFLIGPPSPAESYLNIDAIIRAAKATGAEAIHPGYGFLAENASFVRAVTAAGLIFIGPPAEAMERMGGKTAARREATAAGVPVVPGVLEPVTDAAEVRRLGKEFGYPIAIKAVGGGGGRGLRVVRSPEEVDEAFAAARREAEVAFKNGELYVEKYLDDPRHIEIQVLADRYGNAVALGERDCSVQRRHQKLIEECPSPALTPELRAEMGAAAVRLAKAVGYVSAGTLEFLFQDGRYYFLEMNTRIQVEHTVTEMVYGIDLVAAQIRIAQGEKLWFKQEDVVPRGHAIECRINAEDPLHNFRPALGTIGEYHEPVGFGVRVDSGVRAYYTVPSHYDSLLAKLITWGSDRQEAIARMRRALAEYRIEGVTTIIPFHQAALEHPVFTAGAATVNFIPRHPELFSRAAELTPPTAASAGAEPAPEPRRFGDGMNATPVASPSRSAPARRAAPKKTTLAAPVDAVISPIQGRVVAVRVAHGQQVEAGQVLFIVEAMKMENEITAPHSGTIAEVRVEVGTTVEAGAMLATYQNTANNTNGK
notes: biotin carboxylase isoform BC1, Chloroflexus aurantiacus J-10-fl, with the β-hairpin motif Thr473-Gly486 deleted; Vector pET28a-bc1Δbccp^β-hairpin; source: E. coli BL21(DE3), purified
stoichiometry N [2]: 2

B5: Chloroflexus aurantiacus BC2 (His6-tagged, Met1-Val455) (enzyme, Chloroflexus aurantiacus J-10-fl, UniProt A9WKH8 1-455, looked up)
chain: MIRKVLVANRGEIAVRIIRACQELGIRTVVAYSTADRDSLAVRLADEAVCIGPPPAAKSYLNAPALISAALVSGCDAIHPGYGFLSENPYFAEMCADCKLTFIGPPPEPIRLMGDKAIGRETMRKAGVPTVPGSDGEVRSLEEAIDVARQIGYPVLLKPSGGGGGRGMRVAYDEADLQRAFPTARAEAEAAFGNGALLLEKYLTRVRHVEIQVLADQYGHAIHLGERDCSAQRRHQKIVEEAPSPAVTPELRERMGADAVRGIKSIGYVNAGTLEFLLDQDGNYYFIEMNTRIQVEHPVTEQVTGIDLVRWQLLIASGERLTLRQEDIKITRHAIECRINAEDPERDFLPASGEVEFYLPPGGPGVRVDSHLYSGYTPPGTYDSLLAKIITFGDTRDEALNRMRRALNECVITGIKTTIPFQLALIDDPEFRAGRIHTGYVAELLRQWKETLNPV
notes: biotin carboxylase isoform BC2, Chloroflexus aurantiacus J-10-fl, 455 residues; Met1-Val455 is called full-length; also called His6-BC2; biotin carboxylase isoform 2; not shown: His6, N-terminal, kept
stoichiometry N [5]: 2
Km (purified protein [3]): 6.7 ± 0.9 mM
kcat (purified protein [3]): 16.2 s⁻¹
kcat/Km (purified protein [3]): 2380 M⁻¹ s⁻¹
Km (purified protein [4]): 14.8 ± 2.2 mM
kcat (purified protein [4]): 16.7 s⁻¹
kcat/Km (purified protein [4]): 1160 M⁻¹ s⁻¹

B6: His6-BC1ΔBCCP^Core (Met1-Lys510) (domain or fragment, Chloroflexus aurantiacus J-10-fl, UniProt A9W9X0 1-510, looked up)
chain: MFRTILVANRGEIALRVMRACRELGLRCVAVYSEADRDAPHVAYADDAFLIGPPSPAESYLNIDAIIRAAKATGAEAIHPGYGFLAENASFVRAVTAAGLIFIGPPAEAMERMGGKTAARREATAAGVPVVPGVLEPVTDAAEVRRLGKEFGYPIAIKAVGGGGGRGLRVVRSPEEVDEAFAAARREAEVAFKNGELYVEKYLDDPRHIEIQVLADRYGNAVALGERDCSVQRRHQKLIEECPSPALTPELRAEMGAAAVRLAKAVGYVSAGTLEFLFQDGRYYFLEMNTRIQVEHTVTEMVYGIDLVAAQIRIAQGEKLWFKQEDVVPRGHAIECRINAEDPLHNFRPALGTIGEYHEPVGFGVRVDSGVRAYYTVPSHYDSLLAKLITWGSDRQEAIARMRRALAEYRIEGVTTIIPFHQAALEHPVFTAGAATVNFIPRHPELFSRAAELTPPTAASAGAEPAPEPRRFTIEVNGRRFGVAVFGDGMNATPVASPSRSAPARRAAPK
notes: biotin carboxylase isoform BC1 without the BCCP core, Chloroflexus aurantiacus J-10-fl; The cloning of this construct is not described in the methods; source: E. coli BL21(DE3), purified
stoichiometry N [2]: 4
